Data on one molecule can be found in patent US20240279357A1 (THERINI BIO, published 2024).

This test has as its target T1, human Fibrin (human fibrinogen clotted on the plate with thrombin and CaCl2) (human, UniProt P02671 36-629; P02675 45-491; P02679 27-437).
T1 construct: Made in the ELISA wells from the human fibrinogen by thrombin and CaCl2, 1 hour at 37 C, then dried
T1 sequence (looked up) 1: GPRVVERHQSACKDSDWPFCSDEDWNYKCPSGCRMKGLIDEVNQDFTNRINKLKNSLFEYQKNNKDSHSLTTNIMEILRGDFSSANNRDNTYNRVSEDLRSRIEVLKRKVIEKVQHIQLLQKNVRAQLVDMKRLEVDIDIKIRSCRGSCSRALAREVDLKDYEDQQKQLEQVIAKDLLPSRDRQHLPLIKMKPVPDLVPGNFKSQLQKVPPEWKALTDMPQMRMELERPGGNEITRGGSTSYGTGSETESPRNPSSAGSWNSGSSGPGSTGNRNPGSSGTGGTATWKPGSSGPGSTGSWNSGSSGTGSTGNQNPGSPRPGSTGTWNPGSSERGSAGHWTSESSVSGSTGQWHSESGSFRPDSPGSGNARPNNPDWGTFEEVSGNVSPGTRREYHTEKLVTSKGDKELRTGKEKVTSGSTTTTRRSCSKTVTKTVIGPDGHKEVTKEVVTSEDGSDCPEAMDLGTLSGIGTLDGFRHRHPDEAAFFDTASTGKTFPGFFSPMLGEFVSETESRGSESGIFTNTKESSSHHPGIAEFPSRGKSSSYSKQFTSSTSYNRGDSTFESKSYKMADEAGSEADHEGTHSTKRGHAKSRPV
T1 sequence (looked up) 2: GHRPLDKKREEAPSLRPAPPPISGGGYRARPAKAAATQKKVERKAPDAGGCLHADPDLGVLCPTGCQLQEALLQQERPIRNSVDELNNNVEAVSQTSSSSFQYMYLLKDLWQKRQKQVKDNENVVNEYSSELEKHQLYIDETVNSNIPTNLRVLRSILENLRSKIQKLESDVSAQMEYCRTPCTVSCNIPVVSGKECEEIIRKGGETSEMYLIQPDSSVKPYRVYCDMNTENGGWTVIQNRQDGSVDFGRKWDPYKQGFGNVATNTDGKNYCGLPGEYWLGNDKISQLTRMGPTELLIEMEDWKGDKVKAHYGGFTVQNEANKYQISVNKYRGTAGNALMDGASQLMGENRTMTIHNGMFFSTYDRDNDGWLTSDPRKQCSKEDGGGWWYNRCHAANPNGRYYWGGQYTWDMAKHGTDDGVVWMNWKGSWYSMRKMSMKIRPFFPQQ
T1 sequence (looked up) 3: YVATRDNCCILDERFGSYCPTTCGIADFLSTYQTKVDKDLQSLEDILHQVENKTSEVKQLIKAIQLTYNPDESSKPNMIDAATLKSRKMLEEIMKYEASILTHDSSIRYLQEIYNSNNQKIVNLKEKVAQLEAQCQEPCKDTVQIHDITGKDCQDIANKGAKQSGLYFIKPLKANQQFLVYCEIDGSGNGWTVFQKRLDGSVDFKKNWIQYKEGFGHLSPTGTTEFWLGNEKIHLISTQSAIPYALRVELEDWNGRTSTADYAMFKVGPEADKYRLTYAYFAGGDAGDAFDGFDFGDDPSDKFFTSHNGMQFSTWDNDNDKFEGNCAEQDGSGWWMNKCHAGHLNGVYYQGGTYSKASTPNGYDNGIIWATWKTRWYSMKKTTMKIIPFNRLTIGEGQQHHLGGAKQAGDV
The test can be described thus: ELISA on plate-coated human fibrin (fibrinogen clotted in the well with thrombin/CaCl2), antibody titrated, A450. The procedure: The humanized antibodies affinity for fibrinogen, fibrin and P2 peptide were assessed by Enzyme-linked immunosorbent assays (ELISA)s (FIGS. 7-16). ELISAs for fibrinogen binding were performed using plasminogen-depleted human Fibrinogen (EMD/Calbiochem). […] IgG1-depleted Fibrinogen (FGN) in 20 mM HEPES/Saline buffer was added to each well of half of a 96-well Nunc Maxisorp™ ELISA plate. The ELISAs for fibrin binding were prepared by adding 50 mL of 20 mM HEPES/Saline buffer containing 14 mM CaCl₂, and 2 units thrombin to each well of the second half of the Nunc Maxisorp™ ELISA plate. 50 mL of 20 mg fibrinogen in 20 mM HEPES/Saline buffer were then added to a total volume of 100 mL. Plates were placed in a 37° C. incubator for 1 hour to allow fibrinogen to clot into fibrin and subsequently placed overnight into a plate dryer at 37° C. overnight. The ELISAs for P2 peptide were prepared by addition of […] of 30 mM P2 peptide in 20 mM HEPES/Saline buffer to each well of a 96-well Nunc Maxisorp™ ELISA plate. Plates were transferred to the plate dryer and dried overnight at 37° C. All ELISAs were preformed using Nunc MaxiSorp 96-well ELISA plates. Blocking was performed using 100 mL 5% BSA in DPBS are incubated at RT for 1 hour. Plates were washed 5× in DPBS containing 0.05% Tween-20 (EL406 was used for the addition of wash buffer only). […]
In general terms: In an ELISA, binding on a coated surface is turned into a signal by an enzyme label.

B1: humanized VH4/Vκ1 antibody (antibody, IgG1, V domains shown)
VH: QVQLVQSGAEVKKPGSSVKVSCKASGYTFTSYWIHWVRQAPGQGLEWIGLIDPSDSYTNYNQKFRGRVTITVDTSTSTAYMELSSLRSEDTAVYYCASSDPTGCWGQGTTVTVSS
VL: DIVMTQAAFSNPITPGTPASISCRSSKSLLHSSGITYLSWYLQKPGQSPQLLIYQMSNLASGVPDRFSSSGSGTDFTLRISRVEAEDVGVYYCAQNLELPLTFGQGTKLEIK
notes: Expressed as IgG1; also called VH4/VK1; VH4Vk1
By EC50 (read off the curve) is commonly meant the concentration giving half of the maximal effect. A lower EC50 (read off the curve) goes with a more potent agent. For B1, the “EC50 (read off the curve)” value was ~300 nM.
